Columns and labels:
[1] = K-562 cytotoxicity assay (MTT); format: cell-based, human; conditions: human, K-562 cells, 100 uM
Experimental: The K-562 cell line (CRL-243, ATCC) has attained widespread use as a highly sensitive in vitro target for cytotoxicity assays. K-562 blasts are multipotential, hematopoietic malignant cells that spontaneously differentiate into recognizable progenitors of the erythrocytic, granulocytic and monocytic series (Lozzio, B B et al., Proc. Soc. Exp. Biol. Med. 166: 546-550, 1981).
K562 cells were plated at 5,000 cells/well in 96-well tissue culture clusters (Costar) in DMEM phenol-free growth medium (Life Technologies) supplemented with pyruvate and 10% serum (HyClone). Next day, human recombinant IL-TIF (Example 19), BSA control or retinoic acid (known to be cytotoxic to K562 cells) were added. Seventy-two hours later, the vital stain MTT (Sigma, St Louis, Mo.), a widely used indicator of mitochondrial activity and cell growth, was added to the cells at a final concentration of 0.5 mg/ml. […] is converted to a purple formazan derivative by mitochondrial dehydrogenases. Four hours later, converted MMP was solubilized by adding an equal volume of acidic, isopropanol (0.04N HCl in absolute isopropanol) to the wells. Absorbance was measured at 570 nm, with background subtraction at 650 nm. In this experimental setting, absorbance reflects cell viability. Results shown in Table 12 are expressed as % cytotoxicity.

[2] = biological target: T1, IL-TIF (Homo sapiens, UniProt Q9GZX6); assay: Inhibition of IL-TIF reporter activation in MES 13 cells by Zcytor16-Fc4; format: cell-based; conditions: for LU w/10 μg/ml zcytoR16: zcytoR16 10 μg/ml
T1 sequence (Q9GZX6 34-179): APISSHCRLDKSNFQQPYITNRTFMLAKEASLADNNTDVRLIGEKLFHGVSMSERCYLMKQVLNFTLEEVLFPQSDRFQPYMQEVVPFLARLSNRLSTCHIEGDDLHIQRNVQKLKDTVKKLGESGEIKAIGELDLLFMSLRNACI
Experimental: MES 13 cells (ATCC No. CRL-1927) were plated at 10,000 cells/well in 96-well tissue culture clusters (Costar) in DMEM growth medium (Life Technologies) supplemented with pyruvate and 10% serum (HyClone). Next day, the medium was switched to serum free DMEM medium by substituting 0.1% BSA (Fraction V; Sigma) for serum. This medium also contained the adenoviral construct KZ136 (below) that encodes a luciferase reporter mini-gene driven by SRE and STAT elements, at a 1000:1 multiplicity of infection (m.o.i.), i.e. 1000 adenoviral particles per cell. After allowing 24 h for the incorporation of the adenoviral construct in the cells, the media were changed and replaced with serum-free media. Human recombinant IL-TIF with or without a recombinant Zcytor16-Fc4 fusion was added at the indicated final concentration in the well (as described in Table 11, below). Dilutions of both the IL-TIF and Zcytor16-Fc4 were performed in serum-free medium. 0.1% BSA was added for a basal assay control. 4 h later, cells were lysed and luciferase activity, denoting activation of the reporter gene, was determined in the lysate using an Luciferase Assay System assay kit (Promega) and a Labsystems Luminoskan luminometer (Labsystems, Helsinki, Finland). Activity was expressed as luciferase units (LU) in the lysate.
The construction of the adenoviral KZ136 vector was as follows. The original KZ136 vector is disclosed in Poulsen, L K et al. J. Biol. Chem. 273:6228-6232, 1998. The CMV promoter/enhancer and SV40 pA sequences were removed from pACCMV.pLpA (T. C. Becker et al., […] 43:161-189, 1994.) and replaced with a linker containing Asp718/KpnI and HindIII sites (oligos ZC13252 (SEQ ID NO:26) and ZC13453 (SEQ ID NO:27)). The STAT/SRE driven luciferase reporter cassette was exised from vector KZ136 (Poulsen, L K et al., supra.).) as a Asp718/KpnI-HindIII fragment and inserted into the adapted pAC vector. Recombinant KZ136 Adenovirus was produced by transfection with JM17 Adenovirus into 293 cells as described in T. C. Becker et al. supra.). Plaque purified virus was amplified and used to infect cultured cells at 5-50 pfu/cell 12-48 hours before assay. Luciferase reporter assays were performed as described in 96 well microplates as per Poulsen, L K et al., supra.).

[3] = biological target: T1, IL-TIF; assay: COS cell secretion trap binding of Zcytor16sR/Fc4 to Class II cytokines; parameters: expressed in transfected cells; host or cells: COS cells; conditions: 1-3 μg/ml Zcytor16sR-Fc4; COS cells transfected with IL-TIF cDNA
Experimental: COS cell transfections were performed as follows: A mixture of 0.5 μg DNA and 5 μl lipofectamine (Gibco BRL) in 92 ul serum free DMEM media (55 mg sodium pyruvate, 146 mg L-glutamine, 5 mg transferrin, 2.5 mg insulin, 1 μg selenium and 5 mg fetuin in 500 ml DMEM) was incubated at room temperature for 30 minutes and then 400 μl serum free DMEM media added. A 500 μl mixture was added onto COS cells plated on 12-well tissue culture plate at 1.5×10^5 COS cells/well and previously incubated for 5 hours at 37° C. An additional 500 μl 20% FBS DMEM media (100 ml FBS, 55 mg sodium pyruvate and 146 mg L-glutamine in 500 ml DMEM) was added and the plates were incubated overnight.
The secretion trap was performed as follows: Media was rinsed off cells with PBS and fixed for 15 minutes with 1.8% Formaldehyde in PBS. Cells were then washed with TNT (0.1M Tris-HCl, 0.15M NaCl, and 0.05% Tween-20 in H2O). Cells were permeated with 0.1% Triton-X in PBS for 15 minutes and washed again with TNT. […]

[4] = biological target: T1, IL-TIF; assay: IL-TIF antagonist activity in BaF3/CRF2-4/zcytor11 Alamar Blue proliferation assay; format: cell-based; parameters: the coding region. for human IL-TIF, without its stop codon; made in house; host or cells: BHK 570 cells; conditions: Zcytor16 at 10 μg/ml; IL-TIF at all concentrations (0.06-50 ng/ml)
Source text: Purified human IL-TIF-CEE (Example 19) was used to test for the presence of proliferation activity as described below. Purified humsn Zcytor16-Fc4 (Example 11) was used to antagonize the proliferative response of the IL-TIF in this assay as described below.
BaF3/CRF2-4/zcytor11 cells were spun down and washed in the complete media, described in Example 7A above, but without mIL-3 (hereinafter referred to as “mIL-3 free media”). The cells were spun and washed 3 times to ensure the removal of the mIL-3. Cells were then counted in a hemacytometer. Cells were plated in a 96-well format at 5000 cells per well in a volume of 100 μl per well using the mIL-3 free media.
Proliferation of the BaF3/CRF2-4/zcytor11 cells was assessed using IL-TIF-CEE protein diluted with mIL-3 free media to 50, 10, 2, 1, 0.5, 0.25, 0.13, 0.06 ng/ml concentrations. 100 μl of the diluted protein was added to the BaF3/CRF2-4/zcytor11 cells. […] Alamar Blue gives a fluourometric readout based on number of live cells, and is thus a direct measurement of cell proliferation in comparison to a negative control. […] Plates were read on the Fmax™ plate reader (Molecular Devices Sunnyvale, Calif.) using the SoftMax™ Pro program, at wavelengths 544 (Excitation) and 590 (Emmission). […] The response, as measured, was approximately 15-fold over background at the high end of 50 ng/ml down to a 2-fold induction at the low end of 0.06 ng/ml. […]

Molecule	cytotoxicity at 72 h, 100 µM [1]	LU w/10 μg/ml zcytoR16 ([2]; IL-TIF 0 ng/ml (basal BSA control))	LU w/10 μg/ml zcytoR16 ([2]; IL-TIF 0.03 ng/ml)	LU w/10 μg/ml zcytoR16 ([2]; IL-TIF 0.3 ng/ml)	LU w/10 μg/ml zcytoR16 ([2]; IL-TIF 3 ng/ml)	LU w/10 μg/ml zcytoR16 ([2]; IL-TIF 30 ng/ml)	LU w/10 μg/ml zcytoR16 ([2]; IL-TIF 300 ng/ml)	antagonism of the response to IL-TIF ([2]; even at the highest dose of IL-TIF used)	binding of Zcytor16sR/Fc4 to cytokine-transfected COS cells [3]	response to IL-TIF in presence of Zcytor16 [4]
CC1=C(/C=C/C(C)=C/C=C/C(C)=C/C(=O)O)C(C)(C)CCC1 [Retinoic acid, reference compound]	62%									
Zcytor16sR/Fc4: soluble human Zcytor16 polypeptide (residue 22 to 231 of SEQ ID NO:2) fused to a C-terminal Fc4 tag (protein) TQSTHESLKPQRVQFQSRNFHNILQWQPGRALTGNSSVYFVQYKIYGQRQWKNKEDCWGTQELSCDLTSETSDIQEPYYGRVRAASAGSYSEWSMTPRFTPWWETKIDPPVMNITQVNGSLLVILHAPNLPYRYQKEKNVSIEDYYELLYRVFIINNSLEKEQKVYEGAHRAVEIEALTPHSSYCVVAEIYQPMLDRRSQRSEERCVEIPEPRSSDKTHTCPPCPAPEAEGAPSVFLFPPKPKDTLMISRTPEVTCVVVDVSHEDPEVKFNWYVDGVEVHNAKTKPREEQYNSTYRVVSVLTVLHQDWLNGKEYKCKVSNKALPSSIEKTISKAKGQPREPQVYTLPPSRDELTKNQVSLTCLVKGFYPSDIAVEWESNGQPENNYKTTPPVLDSDGSFFLYSKLTVDKSRWQQGNVFSCSVMHEALHNHYTQKSLSLSPGK		104 ± 2 LU	104 ± 4 LU	99 ± 6 LU	98 ± 15 LU	110 ± 3 LU	112 ± 30 LU	effectively blocks the response to IL-TIF	positive binding	brought down to background
